From patent US11203633B2, “Polynucleotides encoding antibodies or antigen binding fragments thereof that bind pseudomonas perv” (priority 2011, dated 2021)

Key:
[1] = test system: luminescent P. aeruginosa serogroup 05 strain (PAO1.lux); assay: Opsonophagocytic killing (OPK) assay, PAO1.lux; type: cell-based, Pseudomonas aeruginosa; details: purified human IgG1 mAbs from phage panning; FIG. 2A
Description: (§1) This example describes the evaluation of prioritized human IgG1 antibodies to promote OPK of P. aeruginosa. […] OPK assays were performed as described in (DiGiandomenico, A., et al., Infect Immun 72, 7012-7021 (2004)), with modifications. Briefly, assays were performed in 96-well plates using 0.025 ml of each OPK component; P. aeruginosa strains; diluted baby rabbit serum; differentiated HL-60 cells; and monoclonal antibody. In some OPK assays, luminescent P. aeruginosa strains, which were constructed as described (Choi, K. H., et al., Nat Methods 2, 443-448 (2005)), were used. Luminescent OPK assays were performed as described above but with determination of relative luciferase units (RLUs) using a Perkin Elmer ENVISION Multilabel plate reader (Perkin Elmer).

[2] = test system: luminescent P. aeruginosa serogroup 011 strain (9882-80.lux); assay: OPK assay, 9882-80.lux; type: cell-based, Pseudomonas aeruginosa; details: strain 9882-80 (O11); FIG. 2B
Description: as §1
The ability of the WapR-004 and Cam-003 antibodies to mediate OPK activity against another clinically relevant 0-antigen serotype strain, 9882-80.lux, was evaluated.

[3] = test system: P. aeruginosa strains (PAO1, 33356, 6294, 6077, 6206, PA103A); assay: Acute pneumonia model in mice, survival; type: in vivo, Pseudomonas aeruginosa
Description: (§2) Antibodies or PBS were administered 24 hours before infection in each model. P. aeruginosa acute pneumonia, keratitis, and thermal injury infection models were performed as described (DiGiandomenico, A., et al., Proc Natl Acad Sci USA 104, 4624-4629 (2007)), with modifications. In the acute pneumonia model, BALB/c mice (The Jackson Laboratory) were infected with P. aeruginosa strains suspended in a 0.05 ml inoculum. In the thermal injury model, CF-1 mice (Charles River) received a 10% total body surface area burn with a metal brand heated to 92° C. for 10 seconds. Animals were infected subcutaneously with P. aeruginosa strain 6077 at the indicated dose. For organ burden experiments, acute pneumonia was induced in mice followed by harvesting of lungs, spleens, and kidneys 24 hours post-infection for determination of CFU.
The in vivo effect of administration of an anti-PcrV antibodies was studied in mice using an acute pneumonia model. Groups of mice were treated with either increasing concentrations of the V2L2 antibody, a positive control anti-PcrV antibody (mAb166), or a negative control (R347), as shown in FIG. 13 (A-B). Groups of mice were also treated with either increasing concentrations of the V2L2 antibody, the PcrV antibody PcrV-02, or a negative control (R347), as shown in FIG. 13 (C-D). Twenty-four hours after treatment, all mice were infected with 5×10^7 CFU (C) Pseudomonas aeruginosa 6294 (06) or (D) PA103A (O11).
Groups of mice were treated with either increasing concentrations of the 11A6, 3G5 or V2L7, the same concentrations of 29D2, 1F3, 1E6, V2L2, LE10, SH3, 4A8, 2H3, or 21F1, increasing concentrations of the 29D2, increasing concentrations of the V2L2, the PcrV antibody PcrV-02, or a negative control (R347), as shown in FIG. 13 (E-H). Mice were injected intraperitoneally (IP) with mAbs 24 hours prior to intranasal infection with Pseudomonas strain 6077 (1×10^6 CFU/animal).

[4] = test system: P. aeruginosa strains (PAO1, 33356, 6294, 6077, 6206); assay: Acute pneumonia model in mice, organ burden (CFU in lung, spleen, kidneys); type: in vivo, Pseudomonas aeruginosa
Description: as §2
Organ burden of Pseudomonas-infected mice was also studied in response to administration of V2L2. FIG. 14 (A) Mice were treated with either 1 mg/kg R347 (control), or 1 mg/kg, 0.2 mg/kg, or 0.07 mg/kg of V2L2 and then were infected intranasally with 1.2×10^6 cfu of Pseudomonas 6206. FIG. 14 (B) Mice were also treated with either 15 mg/kg R347 (negative control); 15.0 mg/kg, 5.0 mg/kg, or 1.0 mg/kg mAb166 (positive control); or 5.0 mg/kg, 1.0 mg/kg, or 0.2 mg/kg V2L2 and then were infected intranasally with 5.5×10^6 cfu of Pseudomonas 6206.
The in vivo effect of combination administration of anti-Psl and anti-PcrV binding domains was further studied in mice using the antibodies V2L2 and WapR-004 (RAD). Groups of mice were treated with R347 (2.1 mg/kg—negative control), V2L2 (0.1 mg/kg), W4-RAD (0.5 mg/kg), or V2L2/W4 combination (either 0.1, 0.5, 1.0 or 2.0 mg/kg each). Twenty-four hours post-administration of antibody, all mice were infected with an inoculum containing 5.25×10^5 cfu 6206 (O11-ExoU+). Twenty-four hours post infection, lungs, spleens, and kidneys were harvested, homogenized, and plated for colony forming unit (CFU) identification per gram of tissue.

[5] = test system: P. aeruginosa strains 6206 and 6294; assay: Acute pneumonia model in mice, histological examination of lung tissue; type: in vivo, Pseudomonas aeruginosa
[6] = test system: P. aeruginosa strain 6077 (O11-cytotoxic); assay: Corneal infection (ocular keratitis) model in mice; type: in vivo, Pseudomonas aeruginosa
[7] = test system: P. aeruginosa strain 6077 (O11-cytotoxic); assay: Corneal infection (ocular keratitis) model in mice; type: in vivo, Pseudomonas aeruginosa; details: C3H/HeN mice; IP, 16 hours prior to infection with 6077 1×10^6 CFU; graded at 48 h; FIG. 8H
Description: as §2
Cam-003 and WapR-004 efficacy was next evaluated in a P. aeruginosa corneal infection model which emphasizes the pathogens ability to attach and colonize damaged tissue. […] FIG. 8 (H): The activity of anti-Psl and anti-PcrV monoclonal antibodies V2L2 was tested in a P. aeruginosa mouse ocular keratitis model. […]

[8] = 6294 (06) and 6206 (O11), FIG. 7E-F
[9] = Table 5, 6206 5.25×10^5 cfu, R347 2.1 mg/kg, V2L2 0.1 mg/kg, WapR-004 0.5 mg/kg
[10] = Table 6A, strain 6294 1.33×10^7 CFU, 0.2 mg/kg (combination 0.1 mg/kg ea)
[11] = Table 6B, strain 6294 1.7×10^7 CFU, 0.2 mg/kg (combination 0.1 mg/kg ea)
[12] = Table 7, strain 6206 9.25×10^5 CFU, 0.2 mg/kg (combination 0.1 mg/kg ea)

B1: WapR-004: anti-Psl human IgG1 monoclonal antibody; VH SEQ ID NO:11, VL SEQ ID NO:12 (antibody, V domains shown)
VH: EVQLLESGPGLVKPSETLSLTCNVAGGSISPYYWTWIRQPPGKGLELIGYIHSSGYTDYNPSLKSRVTISGDTSKKQFSLHVSSVTAADTAVYFCARGDWDLLHALDIWGQGTLVTVSS
VL: EIVLTQSPSSLSTSVGDRVTITCRASQSIRSHLNWYQQKPGKAPKLLIYGASNLQSGVPSRFSGSGSGTDFTLTISSLQPEDFATYYCQQSYSFPLTFGGGTKLEIK
modifications: human IgG1 constant regions not cited; WapR-004 VH; WapR-004 & WarR-004RAD VL
OPK activity (killing of PAO1.lux) [1]: superior OPK activity
OPK activity [2]: OPK activity extends to strain 9882-80 (O11)
survival ([3]; strain 6077 (O11) 8×10^5 or 6×10^5 CFU, 5 and 1 mg/kg, FIG. 6E-F): significant concentration-dependent survival
organ burden ([4]; 6206 (O11-ExoU+) 5.25×10^5 cfu, V2L2 0.1 mg/kg, W4-RAD 0.5 mg/kg, FIG. 15): effective in lowering organ burden
viable CFU vs. R347, Mann-Whitney U-test P ([4]; 6206, kidney, 5 mg/kg, FIG. 7F): 0.0268
viable CFU vs. R347, Mann-Whitney U-test P ([4]; 6206, kidney, 15 mg/kg, FIG. 7F): 0.0208
viable CFU vs. R347, Mann-Whitney U-test P ([4]; 6206, lung, 1 mg/kg, FIG. 7F): 0.0079
viable CFU vs. R347, Mann-Whitney U-test P ([4]; 6206, lung, 5 mg/kg, FIG. 7F): 0.0006
viable CFU vs. R347, Mann-Whitney U-test P ([4]; 6206, spleen, 1 mg/kg, FIG. 7F): 0.0047
viable CFU vs. R347, Mann-Whitney U-test P ([4]; 6206, spleen, 5 mg/kg, FIG. 7F): 0.0261
viable CFU vs. R347, Mann-Whitney U-test P ([4]; 6206, spleen, 15 mg/kg, FIG. 7F): 0.0059
dissemination to the spleen and kidneys [4, 8]: effective at reducing P. aeruginosa dissemination to the spleen and kidneys
organ burden [4, 8]: reduced organ burden
viable CFU vs. R347, Mann-Whitney U-test P ([4]; 6294 ~1×10^7 CFU, lung, 1 mg/kg, FIG. 7E): 0.0002
viable CFU vs. R347, Mann-Whitney U-test P ([4]; 6294 ~1×10^7 CFU, lung, 5 mg/kg, FIG. 7E): 0.0004
viable CFU vs. R347, Mann-Whitney U-test P ([4]; 6294 ~1×10^7 CFU, lung, 15 mg/kg, FIG. 7E): 0.0011
viable CFU vs. R347, Mann-Whitney U-test P ([4]; 6294 ~1×10^7 CFU, spleen, 5 mg/kg, FIG. 7E): 0.0014
Inflammatory Infiltrate [5, 9]: PMN 2-3+
Involved Lung Surface Area [5, 9]: 50%
Overall Impression [5, 9]: Broncho interstitial pneumonia
Overall Impression ([5]; Table 6A, BALB/c mice, strain 6294 1.33×10^7 CFU, 0.2 mg/kg (combination 0.1 mg/kg ea)): Broncho interstitial pneumonia
Hemorrhage (extent) [5, 10]: Extensive
Inflammatory Infiltrate [5, 10]: PMN 3+
Involved Lung Surface Area [5, 10]: (57%), mod epithelial injury,
Overall Impression ([5]; Table 6B, BALB/c mice, strain 6294 1.7×10^7 CFU, 0.2 mg/kg (combination 0.1 mg/kg ea)): Broncho interstitial pneumonia
Bacteria [5, 11]: Neg-2+
Inflammatory Infiltrate [5, 11]: PMN 2+
Involved Lung Surface Area [5, 11]: (40%), mod epithelial injury,
Overall Impression ([5]; Table 7, BALB/c mice, strain 6206 9.25×10^5 CFU, 0.2 mg/kg (combination 0.1 mg/kg ea)): Broncho interstitial pneumonia
Bacteria [5, 12]: Neg-1+
Inflammatory Infiltrate [5, 12]: PMN 2+
Involved Lung Surface Area [5, 12]: (36%), mild epithelial injury,
corneal pathology and bacterial counts vs negative control-treated animals ([6]; 6077, antibody 24 hours prior to infection, FIG. 8A-D, F-G): significantly less pathology and reduced bacterial counts in total eye homogenates
Cam-003 (45 mg/kg) vs. WapR-004 (15 mg/kg), Mann-Whitney U-test P ([6]; FIG. 8F-G): 0.0025
Cam-003 (45 mg/kg) vs. WapR-004 (45 mg/kg), Mann-Whitney U-test P ([6]; FIG. 8F-G): 0.018
WapR-004 (45 mg/kg) vs. WapR-004 (15 mg/kg), Mann-Whitney U-test P ([6]; FIG. 8F-G): 0.1331

B2: WapR-004RAD: identical to WapR-004 except for an amino acid substitution G98A of the VH; VH SEQ ID NO:74, VL SEQ ID NO:12 (antibody, V domains shown)
VH: EVQLLESGPGLVKPSETLSLTCNVAGGSISPYYWTWIRQPPGKGLELIGYIHSSGYTDYNPSLKSRVTISGDTSKKQFSLHVSSVTAADTAVYFCARADWDLLHALDIWGQGTLVTVSS
VL: EIVLTQSPSSLSTSVGDRVTITCRASQSIRSHLNWYQQKPGKAPKLLIYGASNLQSGVPSRFSGSGSGTDFTLTISSLQPEDFATYYCQQSYSFPLTFGGGTKLEIK
modifications: WapR-004RAD VH; WapR-004 & WarR-004RAD VL
animals survived ([3]; 6206, W4-RAD 0.2 mg/kg, monitored 120 hours, FIG. 21A): Approximately 90%
effect on survival ([3]; 6294, W4-RAD 0.2 mg/kg, FIG. 24): did not affect survival
organ burden in lung, spleen, kidney ([4]; 6294 2.5×10^7 CFU, bispecifics 0.7 mg/kg, W4-RAD 0.5 mg/kg, FIG. 23A): had no effect on decreasing organ burden
corneal pathology and CFU in total eye homogenates vs R347 [7]: significantly less pathology and reduced bacterial colony forming units (CFU) in total eye homogenates
